27 molecules from article PMC10786891, “Massively parallel profiling of RNA-targeting CRISPR-Cas13d” can be followed below.

T1: EsCas13d, nuclease-dead (Eubacterium siraeum, UniProt B0MS50, R295A;H300A;R849A;H854A)
T1 sequence: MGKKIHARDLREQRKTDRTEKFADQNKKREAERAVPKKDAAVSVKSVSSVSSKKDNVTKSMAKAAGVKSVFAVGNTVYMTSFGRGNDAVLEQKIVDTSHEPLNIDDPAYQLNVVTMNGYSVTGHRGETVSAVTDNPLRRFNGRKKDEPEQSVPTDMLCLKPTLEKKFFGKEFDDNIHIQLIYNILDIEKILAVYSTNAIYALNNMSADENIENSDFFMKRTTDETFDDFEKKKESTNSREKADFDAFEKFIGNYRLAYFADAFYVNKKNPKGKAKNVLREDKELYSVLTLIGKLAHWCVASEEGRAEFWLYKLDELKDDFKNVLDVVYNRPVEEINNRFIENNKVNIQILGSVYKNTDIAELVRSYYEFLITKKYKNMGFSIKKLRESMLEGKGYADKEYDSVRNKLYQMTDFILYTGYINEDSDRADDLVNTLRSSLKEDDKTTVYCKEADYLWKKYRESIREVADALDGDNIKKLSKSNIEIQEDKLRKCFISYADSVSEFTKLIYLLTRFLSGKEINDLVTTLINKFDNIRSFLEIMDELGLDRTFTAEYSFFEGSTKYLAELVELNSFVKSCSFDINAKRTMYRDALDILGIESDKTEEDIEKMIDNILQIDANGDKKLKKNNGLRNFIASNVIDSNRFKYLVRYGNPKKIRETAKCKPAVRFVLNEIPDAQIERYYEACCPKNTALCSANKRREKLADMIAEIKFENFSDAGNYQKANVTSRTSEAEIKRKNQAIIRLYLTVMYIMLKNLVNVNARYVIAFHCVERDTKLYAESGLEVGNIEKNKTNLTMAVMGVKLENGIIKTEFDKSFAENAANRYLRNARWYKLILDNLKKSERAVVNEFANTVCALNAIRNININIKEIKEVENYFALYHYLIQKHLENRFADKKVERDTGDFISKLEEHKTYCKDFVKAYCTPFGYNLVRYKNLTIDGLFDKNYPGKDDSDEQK

B1: target 1 insC 3' of 17,insC 3' of 11 (mixed)
RNA 1: CACCCGUGCAAAAAUGCAGGGGUCUAAAACUGAGCGGAUAACCUCUCUAUGG
RNA 2: GGGAAUGGAUCCACAUCUACGAAUUCGUACCAUAGCAGAGGUCUAUCCGCUCACCGAGAUCGGAAGAGCACACGU
B2: target 1 insU 3' of 21,insU 3' of 4 (mixed)
RNA 1: CACCCGUGCAAAAAUGCAGGGGUCUAAAACUGAGCGGAUAACCUCUCUAUGG
RNA 2: GGGAAUGGAUCCACAUCUACGAAUUCGUACCUAUAGAGAGGUUAUCCGCUUCACCGAGAUCGGAAGAGCACACGU
B3: target 1 G13A,A14G (mixed)
RNA 1: CACCCGUGCAAAAAUGCAGGGGUCUAAAACUGAGCGGAUAACCUCUCUAUGG
RNA 2: GGGAAUGGAUCCACAUCUACGAAUUCGUACCAUAGAGGAGUUAUCCGCUCACCGAGAUCGGAAGAGCACACGU
B4: target 1 G13C,C21U (mixed)
RNA 1: CACCCGUGCAAAAAUGCAGGGGUCUAAAACUGAGCGGAUAACCUCUCUAUGG
RNA 2: GGGAAUGGAUCCACAUCUACGAAUUCGUACUAUAGAGACGUUAUCCGCUCACCGAGAUCGGAAGAGCACACGU
B5: target 1 insC 3' of 16,insG 3' of 8 (mixed)
RNA 1: CACCCGUGCAAAAAUGCAGGGGUCUAAAACUGAGCGGAUAACCUCUCUAUGG
RNA 2: GGGAAUGGAUCCACAUCUACGAAUUCGUACCAUAGACGAGGUUAUGCCGCUCACCGAGAUCGGAAGAGCACACGU
B6: target 1 insC 3' of 20,insG 3' of 11 (mixed)
RNA 1: CACCCGUGCAAAAAUGCAGGGGUCUAAAACUGAGCGGAUAACCUCUCUAUGG
RNA 2: GGGAAUGGAUCCACAUCUACGAAUUCGUACCACUAGAGAGGUGUAUCCGCUCACCGAGAUCGGAAGAGCACACGU
B7: target 1 A9U,U19C (mixed)
RNA 1: CACCCGUGCAAAAAUGCAGGGGUCUAAAACUGAGCGGAUAACCUCUCUAUGG
RNA 2: GGGAAUGGAUCCACAUCUACGAAUUCGUACCACAGAGAGGUUUUCCGCUCACCGAGAUCGGAAGAGCACACGU
B8: target 1 insC 3' of 18,insU 3' of 1 (mixed)
RNA 1: CACCCGUGCAAAAAUGCAGGGGUCUAAAACUGAGCGGAUAACCUCUCUAUGG
RNA 2: GGGAAUGGAUCCACAUCUACGAAUUCGUACCAUACGAGAGGUUAUCCGCUCAUCCGAGAUCGGAAGAGCACACGU
B9: target 1 insU 3' of 13,insU 3' of 1 (mixed)
RNA 1: CACCCGUGCAAAAAUGCAGGGGUCUAAAACUGAGCGGAUAACCUCUCUAUGG
RNA 2: GGGAAUGGAUCCACAUCUACGAAUUCGUACCAUAGAGAGUGUUAUCCGCUCAUCCGAGAUCGGAAGAGCACACGU
B10: target 1 insG 3' of 22,insA 3' of 21 (mixed)
RNA 1: CACCCGUGCAAAAAUGCAGGGGUCUAAAACUGAGCGGAUAACCUCUCUAUGG
RNA 2: GGGAAUGGAUCCACAUCUACGAAUUCGUACGCAAUAGAGAGGUUAUCCGCUCACCGAGAUCGGAAGAGCACACGU
B11: target 1 insC 3' of 22,insU 3' of 15 (mixed)
RNA 1: CACCCGUGCAAAAAUGCAGGGGUCUAAAACUGAGCGGAUAACCUCUCUAUGG
RNA 2: GGGAAUGGAUCCACAUCUACGAAUUCGUACCCAUAGAGUAGGUUAUCCGCUCACCGAGAUCGGAAGAGCACACGU
B12: target 1 insA 3' of 17,insA 3' of 8 (mixed)
RNA 1: CACCCGUGCAAAAAUGCAGGGGUCUAAAACUGAGCGGAUAACCUCUCUAUGG
RNA 2: GGGAAUGGAUCCACAUCUACGAAUUCGUACCAUAGAAGAGGUUAUACCGCUCACCGAGAUCGGAAGAGCACACGU
B13: target 1 insU 3' of 6,insG 3' of 1 (mixed)
RNA 1: CACCCGUGCAAAAAUGCAGGGGUCUAAAACUGAGCGGAUAACCUCUCUAUGG
RNA 2: GGGAAUGGAUCCACAUCUACGAAUUCGUACCAUAGAGAGGUUAUCCUGCUCAGCCGAGAUCGGAAGAGCACACGU
B14: target 1 insA 3' of 5,insG 3' of 4 (mixed)
RNA 1: CACCCGUGCAAAAAUGCAGGGGUCUAAAACUGAGCGGAUAACCUCUCUAUGG
RNA 2: GGGAAUGGAUCCACAUCUACGAAUUCGUACCAUAGAGAGGUUAUCCGACGUCACCGAGAUCGGAAGAGCACACGU
B15: target 1 C2A,C21A (mixed)
RNA 1: CACCCGUGCAAAAAUGCAGGGGUCUAAAACUGAGCGGAUAACCUCUCUAUGG
RNA 2: GGGAAUGGAUCCACAUCUACGAAUUCGUACAAUAGAGAGGUUAUCCGCUAACCGAGAUCGGAAGAGCACACGU
B16: target 1 insU 3' of 9,insG 3' of 7 (mixed)
RNA 1: CACCCGUGCAAAAAUGCAGGGGUCUAAAACUGAGCGGAUAACCUCUCUAUGG
RNA 2: GGGAAUGGAUCCACAUCUACGAAUUCGUACCAUAGAGAGGUUAUUCGCGCUCACCGAGAUCGGAAGAGCACACGU
B17: target 1 C4G,G12A (mixed)
RNA 1: CACCCGUGCAAAAAUGCAGGGGUCUAAAACUGAGCGGAUAACCUCUCUAUGG
RNA 2: GGGAAUGGAUCCACAUCUACGAAUUCGUACCAUAGAGAGAUUAUCCGGUCACCGAGAUCGGAAGAGCACACGU
B18: target 1 insA 3' of 19,insA 3' of 17 (mixed)
RNA 1: CACCCGUGCAAAAAUGCAGGGGUCUAAAACUGAGCGGAUAACCUCUCUAUGG
RNA 2: GGGAAUGGAUCCACAUCUACGAAUUCGUACCAUAAGAAGAGGUUAUCCGCUCACCGAGAUCGGAAGAGCACACGU
B19: target 1 insC 3' of 11,insC 3' of 10 (mixed)
RNA 1: CACCCGUGCAAAAAUGCAGGGGUCUAAAACUGAGCGGAUAACCUCUCUAUGG
RNA 2: GGGAAUGGAUCCACAUCUACGAAUUCGUACCAUAGAGAGGUCUCAUCCGCUCACCGAGAUCGGAAGAGCACACGU
B20: target 1 insG 3' of 16,insC 3' of 12 (mixed)
RNA 1: CACCCGUGCAAAAAUGCAGGGGUCUAAAACUGAGCGGAUAACCUCUCUAUGG
RNA 2: GGGAAUGGAUCCACAUCUACGAAUUCGUACCAUAGAGGAGGCUUAUCCGCUCACCGAGAUCGGAAGAGCACACGU
B21: target 1 insA 3' of 12,insU 3' of 2 (mixed)
RNA 1: CACCCGUGCAAAAAUGCAGGGGUCUAAAACUGAGCGGAUAACCUCUCUAUGG
RNA 2: GGGAAUGGAUCCACAUCUACGAAUUCGUACCAUAGAGAGGAUUAUCCGCUCUACCGAGAUCGGAAGAGCACACGU
B22: target 1 insC 3' of 10,insU 3' of 5 (mixed)
RNA 1: CACCCGUGCAAAAAUGCAGGGGUCUAAAACUGAGCGGAUAACCUCUCUAUGG
RNA 2: GGGAAUGGAUCCACAUCUACGAAUUCGUACCAUAGAGAGGUUCAUCCGUCUCACCGAGAUCGGAAGAGCACACGU
B23: target 1 insA 3' of 22,insU 3' of 7 (mixed)
RNA 1: CACCCGUGCAAAAAUGCAGGGGUCUAAAACUGAGCGGAUAACCUCUCUAUGG
RNA 2: GGGAAUGGAUCCACAUCUACGAAUUCGUACACAUAGAGAGGUUAUCUCGCUCACCGAGAUCGGAAGAGCACACGU
B24: target 1 insC 3' of 22,insA 3' of 13 (mixed)
RNA 1: CACCCGUGCAAAAAUGCAGGGGUCUAAAACUGAGCGGAUAACCUCUCUAUGG
RNA 2: GGGAAUGGAUCCACAUCUACGAAUUCGUACCCAUAGAGAGAGUUAUCCGCUCACCGAGAUCGGAAGAGCACACGU
B25: target 1 insA 3' of 13,insG 3' of 8 (mixed)
RNA 1: CACCCGUGCAAAAAUGCAGGGGUCUAAAACUGAGCGGAUAACCUCUCUAUGG
RNA 2: GGGAAUGGAUCCACAUCUACGAAUUCGUACCAUAGAGAGAGUUAUGCCGCUCACCGAGAUCGGAAGAGCACACGU
B26: target 1 complement block 1-8 (mixed)
RNA 1: CACCCGUGCAAAAAUGCAGGGGUCUAAAACUGAGCGGAUAACCUCUCUAUGG
RNA 2: GGGAAUGGAUCCACAUCUACGAAUUCGUACCAUAGAGAGGUUAAGGCGAGUCCGAGAUCGGAAGAGCACACGU
B27: target 1 U3A,G13C (mixed)
RNA 1: CACCCGUGCAAAAAUGCAGGGGUCUAAAACUGAGCGGAUAACCUCUCUAUGG
RNA 2: GGGAAUGGAUCCACAUCUACGAAUUCGUACCAUAGAGACGUUAUCCGCACACCGAGAUCGGAAGAGCACACGU

The data set concerns the target T1, EsCas13d, nuclease-dead. Description: crRNA (strand 1, pre-loaded); Mg2+; 40 mM Tris-HCl pH 7.5, 150 mM NaCl, 6 mM MgCl2, 1 mM DTT, 0.1% Tween-20, 0.2 mg/ml BSA; 25 C; 10 min per concentration, then washed. The following applies: tags: His6-TwinStrep-SUMO cleaved; N-terminal SNAP kept (SNAP-Surface 488); label: 3' end held by stalled T7 RNA polymerase.
By Kd is commonly meant the concentration at which binding is half-saturated. The low end stands for tighter binding, the high end for weaker binding. Regarding B1, the affinity, expressed as Kd, was 80 ± 26 nM.
The result for B2 reads 21.8 ± 1 nM; that for B3, 17.2 ± 1.6 nM; that for B4, 5.6 ± 0.7 nM.
For the molecule B5, binding was put at a Kd of 56 ± 13 nM.
For the molecule B6, the Kd stood at 6.6 ± 0.5 nM.
Regarding B7, the Kd is 26.3 ± 2.9 nM.
In turn, B8 displayed a Kd of 30.7 ± 2.6 nM.
On to B9, for which binding was put at a Kd of 14.8 ± 1.7 nM.
Regarding B10, the affinity, expressed as Kd, was 27.4 ± 2.6 nM.
As to B11, the affinity, expressed as Kd, was 29 ± 10 nM.
In the case of B12, the affinity, expressed as Kd, was 16.1 ± 1.2 nM.
Regarding B13, binding was put at a Kd of 12.5 ± 0.8 nM.
Take B14: the affinity, expressed as Kd, was 6.6 ± 0.6 nM.
The result for B15 reads 38 ± 6 nM.
The figure for B16 is 10.6 ± 0.5 nM.
For B17, the Kd came to 3.39 ± 0.29 nM.
The result for B18 reads 37 ± 5 nM; that for B19, 29 ± 4 nM.
In turn, B20 yielded a Kd of 47 ± 13 nM.
As for B21, binding was put at a Kd of 40 ± 5 nM.
On to B22, for which the Kd came to 14 ± 2.4 nM.
B23 gave a dissociation constant Kd of 15.3 ± 0.7 nM.
As to B24, binding was put at a Kd of 13.4 ± 2 nM.
The figure for B25 is 5.4 ± 0.5 nM; for B26 it is 11.4 ± 0.4 nM.
B27 had a Kd of 32.2 ± 3.2 nM.
